Entries after “also recorded” stand apart in the source; their conditions may differ.
Legend:
[1] = molecular target: T1, MAGEC2 peptide on HLA-A*24:02 (human); assay: killing
T1 peptide: VGPDHFCVF

[2] = molecular target: T2, MAGEC2 peptide on HLA-B*07:02 (human); assay: killing
T2 peptide: RAREFMELL

VGP peptide-pulsed cells = assay: IFP+ reporter-based cell killing of VGP peptide-pulsed HEK293T cells; parameters: species or system human; conditions: HEK293T cells pulsed with serial dilutions of VGP peptide, co-cultured with TCR-transduced T cells; FIG. 9A
Experimental: (§1) To characterize the recognition of the identified peptide by a TCR, wild-type HEK293 cells were pulsed with serial dilutions of peptide and co-cultured with T cells transduced with the TCR of interest. After 24 hours, cultures were mixed by pipetting, and centrifuged at 2,000 rpm for 2 minutes. Supernatants were collected and measured for IFNγ secretion using a human IFNγ 3rd generation single-plex assay (Protein Simple) following the manufacturer's instructions. Alternatively, monoallelic HEK293T cells expressing a granzyme-activated fluorescent reporter were pulsed with serial dilutions of peptide and co-cultured with T cells transduced with an individual TCR of interest. After 4 hours, the cultures were harvested by pipetting and fluorescence of the reporter was detected using a CytoFLEX™ S instrument (Beckman Coulter).
Data shown in FIGS. 7-9 were generated according to similar materials, methods, and experiments as described above.

RAR peptide-pulsed cells = assay: T cell recognition assay: IFNγ release on co-culture with RAR peptide-pulsed wild-type HEK293T cells; format: cell-based, human; conditions: wild-type HEK293T cells pulsed with serial dilutions of RAR peptide, co-cultured with TCR-transduced T cells; FIG. 4A
Experimental: as §1

[3] = molecular target: T3, RAR peptide-HLA-B*07:02 (pMHC) complex (Homo sapiens, UniProt P01889+Q9UBF1); assay: Peptide pulse-based cytotoxicity assay with granzyme-activated fluorescent reporter in HLA-B*07:02 monoallelic HEK293T cells; format: cell-based; conditions: HLA-B*07:02 monoallelic HEK293T reporter cells pulsed with RAR peptide, co-cultured with TCR-transduced T cells; FIG. 4B
T3 construct: expressed in transfected cells; host or cells: MHC-null HEK293T cells engineered to express HLA-B*07:02 (monoallelic reporter cells)
Experimental: as §1

[4] = test system: melanoma cells that express MAGEC2; assay: Reactivity to melanoma cell lines measured by IFNγ release; format: cell-based, human
Experimental: To detect reactivity to melanoma cell lines, wild-type melanoma cell lines were seeded at 6×10^4 cells in a 96-well flat bottom plate and rested for 16 hours at 37° C. in 5% CO2. On the following day, T cells were thawed, washed in complete RPMI-1640 medium, and added to the wells for an effector to target ratio of 1:1. The co-culture was incubated for 16 hours. Cells were then harvested by pipetting, transferred to V-bottom 96-well plates, and centrifuged at 2,000 rpm for 2 minutes. The supernatant was collected for IFNγ measurement using a human IFNγ 3rd generation single-plex assay (Protein Simple). For flow cytometry analysis (Cytoflex S™ instrument, Beckman Coulter), cell pellets were washed with FACS buffer (PBS, 0.5% BSA, 2 mM EDTA) and stained for activation-induced markers, including PE-conjugated anti-CD137 (Miltenyi), AF647-conjugated anti-CD69 (Biolegend), and BV421-conjugated anti-CD8 (BioLegend).
Melanoma lines were purchased from ATCC (Manassas, VA) and HEK293T cells were originally from Takara Bio (Shiga, Japan). All media were supplemented with 10% FBS and 1% penicillin and incubated at 37° C. in 5% CO2. A101D, A2058, HT144, and HEK293T cells were maintained in complete DMEM. SK-MEL-5 was cultured in complete EMEM, whereas HMCB required complete EMEM with 10 mM HEPES. […]

[5] = test system: MAGEC2-expressing melanoma cell lines; assay: Incucyte cytotoxicity assay on NucLight Red melanoma cell lines; format: cell-based, human; conditions: E:T ratio of 2:1; versus MHC-mismatched control TCR or no T cells; FIG. 6
Experimental: Melanoma lines were purchased from ATCC (Manassas, VA) and HEK293T cells were originally from Takara Bio (Shiga, Japan). All media were supplemented with 10% FBS and 1% penicillin and incubated at 37° C. in 5% CO2. A101D, A2058, HT144, and HEK293T cells were maintained in complete DMEM. SK-MEL-5 was cultured in complete EMEM, whereas HMCB required complete EMEM with 10 mM HEPES. Untransduced cancer cells were maintained in preparation for the T cell recognition assay, and 10^6 cells of each cell line were introduced with Incucyte® NucLight™ Red lentivirus reagent (Sartorius, Gottingen, Germany). Positively-labeled cells were selected using 1.5 ug/mL of puromycin over 72 hours.
Melanoma cells selected for Incucyte® NucLight™ analysis were seeded into 96-well flat bottom plates (Corning, Flintshire, UK) at 10^4 cells, except for HMCB cells, which were plated at 5×10^3 cells. On the same day, T cells were thawed, washed in complete RPMI-1640, and allowed to rest overnight in medium with 50 U/mL IL-2 (PeproTech), 5 ng/mL IL-7, and 5 ng/mL IL-15 (R&D Systems). All cells were rested for 16 hours at 37° C. in 5% CO2. A two-fold serial dilution of the T cells was performed for the effector to target ratios, with the highest E:T at 4:1, and the lowest at 1:2. […] Imaging utilized a 4× objective lens and data were analyzed using the Incucyte® Basic Software. […]

B1: MAGEC2 TCR 4-58 (TCR, V domains shown)
Valpha: KNQVEQSPQSLIILEGKNCTLQCNYTVSPFSNLRWYKQDTGRGPVSLTIMTFSENTKSNGRYTATLDADTKQSSLHITASQLSDSASYICVVSARNAGNMLTFGGGTRLMVKP
Vbeta: EAQVTQNPRYLITVTGKKLTVTCSQNMNHEYMSWYRQDPGLGLRQIYYSMNVEVTDKGDVPEGYKVSRKEKRNFPLILESPSPNQTSLYFCACASSFGTSGRGEQFFGPGTRLTVL
Does B1 bind [1]?
Result: recognises

B2: MAGEC2 TCR 8-3 (TCR, V domains shown)
Valpha: ILNVEQSPQSLHVQEGDSTNFTCSFPSSNFYALHWYRWETAKSPEALFVMTLNGDEKKKGRISATLNTKEGYSYLYIKGSQPEDSATYLCASGSGGATNKLIFGTGTLLAVQP
Vbeta: GEEVAQTPKHLVRGEGQKAKLYCAPIKGHSYVFWYQQVLKNEFKFLISFQNENVFDETGMPKERFSAKCLPNSPCSLEIQATKLEDSAVYFCASSQSRSLRGTEAFFGQGTRLTVV
Does B2 bind [2]?
Result: recognises

B3: TCR 4-58: T cell receptor (TRAV10/TRAJ39; TRBV27) recognizing MAGEC2 VGP peptide presented by HLA-A*24:02; tested in transduced T cells (protein)
TCR alpha: RGNGKNQVEQSPQSLIILEGKNCTLQCNYTVSPFSNLRWYKQDTGRGPVSLTIMTFSENTKSNGRYTATLDADTKQSSLHITASQLSDSASYICVVSARNAGNMLTFGGGTRLMVKPHIQNPEPAVYQLKDPRSQDSTLCLFTDFDSQINVPKTMESGTFITDKCVLDMKAMDSKSNGAIAWSNQTSFTCQDIFKETNATYPSSDVPCDATLTEKSFETDMNLNFQNLLVMVLRILLLKVAGFNLLMTLRLWSS
TCR beta: EAQVTQNPRYLITVTGKKLTVTCSQNMNHEYMSWYRQDPGLGLRQIYYSMNVEVTDKGDVPEGYKVSRKEKRNFPLILESPSPNQTSLYFCACASSFGTSGRGEQFFGPGTRLTVLEDLRNVTPPKVSLFEPSKAEIANKQKATLVCLARGFFPDHVELSWWVNGKEVHSGVCTDPQAYKESNYSYCLSSRLRVSATFWHNPRNHFRCQVQFHGLSEEDKWPEGSPKPVTQNISAEAWGRADCGITSASYQQGVLSATILYEILLGKATLYAVLVSTLVVMAMVKRKNS
For B3, which “Recognition and killing of VGP peptide-pulsed cells (IFP+ reporter-based cell killing)” value (VGP peptide-pulsed cells) is on record?
The value was “recognizes and kills VGP peptide-pulsed cells”.

B4: TCR 8-3: T cell receptor (TRAV24*01/TRAJ32*02; TRBV16*01/TRBJ1-1*01) recognizing MAGEC2 RAR peptide presented by HLA-B*07:02; tested in transduced T cells (protein)
TCR alpha: ILNVEQSPQSLHVQEGDSTNFTCSFPSSNFYALHWYRWETAKSPEALFVMTLNGDEKKKGRISATLNTKEGYSYLYIKGSQPEDSATYLCASGSGGATNKLIFGTGTLLAVQPNIQNPEPAVYQLKDPRSQDSTLCLFTDFDSQINVPKTMESGTFITDKCVLDMKAMDSKSNGAIAWSNQTSFTCQDIFKETNATYPSSDVPCDATLTEKSFETDMNLNFQNLLVMVLRILLLKVAGFNLLMTLRLWSS
TCR beta: GEEVAQTPKHLVRGEGQKAKLYCAPIKGHSYVFWYQQVLKNEFKFLISFQNENVFDETGMPKERFSAKCLPNSPCSLEIQATKLEDSAVYFCASSQSRSLRGTEAFFGQGTRLTVVEDLRNVTPPKVSLFEPSKAEIANKQKATLVCLARGFFPDHVELSWWVNGKEVHSGVCTDPQAYKESNYSYCLSSRLRVSATFWHNPRNHFRCQVQFHGLSEEDKWPEGSPKPVTQNISAEAWGRADCGITSASYQQGVLSATILYEILLGKATLYAVLVSTLVVMAMVKRKNS
Which “Recognition of RAR peptide-pulsed cells (IFNγ release)” value (RAR peptide-pulsed cells) does the source give for B4 here?
Its value is “recognizes”.

What about the “Killing of RAR peptide-pulsed cells (granzyme-activated fluorescent reporter)” value [3] of the same molecule?
Its value is “demonstrated to kill cells expressing RAR peptide-HLA-B*07:02 (pMHC) complex; also recorded: kills”.

What about the “Relation of TCR reactivity to MAGEC2 expression of melanoma cell lines” value ([4]; IFNγ release versus MAGEC2 expression, FIG. 5E) of the same molecule?
The value was “corresponds to MAGEC2 expression”.

And the “Recognition of melanoma cell lines (IFNγ release)” value ([4]; melanoma cell lines, E:T 1:1, 16 hours, FIG. 5D)?
Its value is “recognizes melanoma cells that express MAGEC2”.

And the “Killing of MAGEC2-expressing melanoma cell lines (red object count over time)” value [5]?
The value was “demonstrated to kill cancer cells that express MAGEC2; also recorded: kills MAGEC2-expressing melanoma cell lines”.

From patent US20240190931A1, “MAGEC2 IMMUNOGENIC PEPTIDES, BINDING PROTEINS RECOGNIZING MAGEC2 IMMUNOGENIC PEPTIDES, AND USES THEREOF” (TScan Therapeutics, Inc., priority 2021, published 2024)
